Consider 2 substances from patent publication US20170340698A1, “CYCLIC PEPTIDE SPECIFICALLY BINDING TO APOPTOTIC CELLS AND USE THEREOF” (KYUNGPOOK NATIONAL UNIVERSITY INDUSTRY-ACADEMIC COOPERATION …, priority 2014, published 2017).

For assay [1], the target named is histone H1 present on surfaces of apoptotic cells (apoptotic SNU16 human stomach cancer cells) (human) (UniProt P07305). Put plainly: flow cytometry, FITC-peptide on SNU16 cells treated with cetuximab alone for 24 h.
The target is the same in assay [2]. Put plainly: flow cytometry, FITC-peptide on SNU16 cells treated with cisplatin and cetuximab in combination for 24 h. (In general: In flow cytometry, cells or beads pass a laser one at a time.)
Assay [3] has the same target. Put plainly: flow cytometry, FITC-peptide on SNU16 cells treated with cisplatin alone for 24 h.

For “cyclic form of ApoPep-1 (cyclo[Cys-Gln-Arg-Pro-Pro-Arg-Cys] peptide)”, the percentage of apoptotic cells detected (peptide-bound fluorescent cells) in assay [1] stood at 49%; in assay [2], 78%; in assay [3], 56%.
The matching figures for “linear form of ApoPep-1 (CQRPPR) (peptide)”: 25%, 34% and 28%.
